From patent US20190322720A1 (PRECISION BIOLOGICS, published 2019)

Columns and labels:
[1] = molecular target: T1, MUC5AC truncation construct 1-136 (human, UniProt P98088 3212-4055); assay: immunofluorescence, transfected 293T cells
T1 construct: also called 136 residue construct
T1 sequence: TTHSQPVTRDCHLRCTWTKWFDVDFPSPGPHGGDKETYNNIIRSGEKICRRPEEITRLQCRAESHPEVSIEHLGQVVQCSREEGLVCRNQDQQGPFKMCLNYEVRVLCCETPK
Description: (§1) Cells were transiently transfected with 2 μg of MUC5AC constructs of Table 8 with LIPOFECTAMINE®. Cells were grown for about 72 hours, fixed with about 4% PFA in PBS, washed with PBS, permeabilized with about 0.2% […] in PBS and washed with PBS. Cells were then blocked with about 1% BSA in PBS, and about 2 μg/ml NPC-1 antibody was added to sample wells and about 2 μg/ml of an Isotype control was added for 1 hour at room temp. Cells were washed with PBS and second anti human-FITC antibody (1:500) was added to all wells and to the second antibody control wells. Cells were washed and mounted on slides with DAPI hard mount. Cover slides were allowed to sit over night at about 4° C. Slides were visualized with a Nikon Eclipse Ti microscope with an Andor camera. At least 3 random fields were counted per transfection.
(§2) This strategy was used to identify an about 15 amino acid-region that contains a NPC-1 epitope: […] (SEQ ID NO: 37). […] This is a repetitive sequence that also has some changes in it which are also probable scaffold for the binding sites for the NPC-1C antibody. This repetitive sequence and variations can be found in the longer deletions of MUC5AC and MUC5AC itself.

[2] = molecular target: T2, MUC5AC truncation construct 1-85 (human, UniProt P98088 1734-1794); assay: immunofluorescence, transfected 293T cells
T2 construct: also called 85 residue construct
T2 chain: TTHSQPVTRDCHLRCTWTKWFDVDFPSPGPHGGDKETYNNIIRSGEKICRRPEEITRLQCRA
Description: as §1, §2

B1: NPC-1C (antibody, V domains shown)
VH: QVQLKESGPDLVAPSQSLSITCTVSGFSLSKFGVNWVRQPPGKGLEWLGVIWGDGSTSYNSGLISRLSISKENSKSQVFLKLNSLQADDTATYYCVKPGGDYWGHGTSVTVSS
VL: QVVLTQSPVIMSASPGEKVTMTCSASSSISYMYWYQQKPGTSPKRWIYDTSKLASGVPARFSGSGSGTSYSLTISNMEAGDAATYYCHQRDSYPWTFGGGTNLEIK
notes: Chimeric antibody with human IgG1 constant regions, made in CHO cells; used plain, biotin- or FITC-labelled, or coupled to beads; also called NEO-101; ensituximab
B1: no binding (tested: about 2 µg/ml) [1]; no binding (tested: about 2 µg/ml) [2].
